Measurements reported in patent CN116829596A.

Columns and labels:
[1] = target: 人类血浆激肽释放酶 (human plasma kallikrein) (human) (UniProt P03952); experiment: SPR, 37 C, pH 7.4
[2] = target: 人类血浆激肽释放酶 (human plasma kallikrein) (human) (UniProt P03952); experiment: SPR, 37 C, pH 7.4 or pH 6.0
[3] = target: 人类血浆激肽释放酶 (human plasma kallikrein) (human) (UniProt P03952); experiment: SPR, 37 C, pH 6 against pH 7.4
[4] = target: 人类血浆激肽释放酶 (human plasma kallikrein) (human) (UniProt P03952); experiment: cell-based or functional assay
丝氨酸穿膜蛋白酶 = experiment: cell-based or functional assay
[5] = target: 胰蛋白酶、人类胰酶 (trypsin, human pancreas) (human) (UniProt P07477); experiment: cell-based or functional assay
凝血酶A (thrombin A) = experiment: cell-based or functional assay
[6] = target: 人类血浆激肽释放酶 (human plasma kallikrein) (human) (UniProt P03952); experiment: SPR, 37 C, pH 6.0

Chain of UniProt P03952 (P03952 20-390 S143N limits assumed, chain 1 of 2): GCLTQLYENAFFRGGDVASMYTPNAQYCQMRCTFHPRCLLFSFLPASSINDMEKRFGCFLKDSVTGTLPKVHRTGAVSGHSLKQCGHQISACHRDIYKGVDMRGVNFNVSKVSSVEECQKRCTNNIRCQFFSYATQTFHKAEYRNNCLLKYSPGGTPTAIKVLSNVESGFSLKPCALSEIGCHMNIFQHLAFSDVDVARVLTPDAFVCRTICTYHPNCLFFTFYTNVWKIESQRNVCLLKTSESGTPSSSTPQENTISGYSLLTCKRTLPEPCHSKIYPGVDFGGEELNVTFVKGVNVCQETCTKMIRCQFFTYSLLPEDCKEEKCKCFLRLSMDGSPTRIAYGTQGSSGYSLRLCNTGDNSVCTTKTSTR
Chain of UniProt P03952 (P03952 391-638 limits assumed, chain 2 of 2): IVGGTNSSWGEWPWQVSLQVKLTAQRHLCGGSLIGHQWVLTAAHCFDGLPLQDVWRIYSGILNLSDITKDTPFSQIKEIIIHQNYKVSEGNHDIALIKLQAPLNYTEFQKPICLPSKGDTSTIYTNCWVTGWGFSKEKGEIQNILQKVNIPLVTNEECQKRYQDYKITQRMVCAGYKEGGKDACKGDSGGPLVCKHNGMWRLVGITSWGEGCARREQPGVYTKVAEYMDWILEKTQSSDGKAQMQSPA

Substance: DX-2930 (antibody)
- Kd [1]: 18 nM
- fold affinity for plasma kallikrein over prekallikrein [2]: > 1000 倍
- fold change of KD between pH 6 and pH 7.4 [3]: > 10 倍
- IC90，HMWK功能分析 [4]: 300 nM
- 丝氨酸蛋白酶抑制分析，IC50 (丝氨酸穿膜蛋白酶): > 1000 nM
- 胰蛋白酶抑制分析，IC50 [5]: 243 to 376 nM
- 丝氨酸蛋白酶抑制分析，IC50 (凝血酶A (thrombin A)): > 1000 nM
- Kd [6]: 236 nM
